In assay [1] the target is HER2-ECD (in house) (UniProt P04626). In words: SPR (refers to Table G3).
Assay [2] shares this target. In words: SPR (BIAcore T200), Fab captured on anti-Fab chip, HER2-ECD as analyte, 25 C, 1:1 model.
The target in assay [3] is T1, MET-R Fc (R&D Systems, catalog number 8614-MT) (UniProt P08581 25-932).
T1 construct: Bought reagent used as SPR analyte; not shown: Fc part of the bought fusion protein
The experiment in a line: SPR (BIAcore T200), Fab captured on anti-Fab chip, MET-R Fc as analyte, 25 C, 1:1 model.

Assay [4] concerns the target T1, MET-R Fc (R&D Systems, catalog number …). In words: SPR (BIAcore T200), Fab captured on anti-Fab chip, MET-R Fc as analyte; n.d. = binding was not detected.
Assay [5] has as its target T2, IL-13 (in-house) (UniProt P35225 35-146, limits assumed).
T2 construct: SPR analyte
The experiment in a line: SPR (BIAcore T200), Fab captured on anti-Fab chip, IL-13 as analyte, 25 C, 1:1 model.

The target in assay [6] is T2, IL-13 (in-house). The experiment in a line: SPR.
The target of assay [7] is T2, IL-13 (in-house). In words: SPR (BIAcore T200), Fab captured on anti-Fab chip, IL-13 as analyte; n.d. = binding was not detected.

Residue numbers refer to the chain shown, from its start. In names and notes the source's numbering stands. Some results are limits rather than exact numbers.

Turning to anti-HER2 Fab variant CDR H3 W95D, in the assay with HER2-ECD (in house) [1], the fold change of KD against the unmodified parent was found to be 30 fold. In the assay with HER2-ECD (in house) [2], this molecule showed a Kd of 36.5 nM, an off-rate constant (koff) of 0.00294 s⁻¹ and a kon of 80000 M⁻¹ s⁻¹.

B1: Parental anti-MET Fab (onartuzumab / 5D5) (Fab, V domains shown)
VH: EVQLVESGGGLVQPGGSLRLSCAASGYTFTSYWLHWVRQAPGKGLEWVGMIDPSNSDTRFNPNFKDRFTISADTSKNTAYLQMNSLRAEDTAVYYCATYRSYVTPLDYWGQGTLVTVSS
VL: DIQMTQSPSSLSASVGDRVTITCKSSQSLLYTSSQKNYLAWYQQKPGKAPKLLIYWASTRESGVPSRFSGSGSGTDFTLTISSLQPEDFATYYCQQYYAYPWTFGQGTKVEIK
notes: Tested as Fab
In assay [3], B1 gave a Kd of less than 0.05 nM, a koff of less than 1e-05 s⁻¹ and a kon of 179000 M⁻¹ s⁻¹.

B2: anti-MET Fab variant CDR L3 Y91A:Y94A (Fab, V domains shown)
VH: B1 VH
VL: B1 VL with Y97A, Y100A
notes: Fab; variable domains only; Kabat numbering
B2: the binding result in assay [4] is recorded as “no binding (tested: analyte up to 75 nM)”.

B3: anti-MET Fab variant CDR L3 Y91A:W96A (Fab, V domains shown)
VH: B1 VH
VL: B1 VL with Y97A, W102A
notes: as for B2
For the molecule B3, the binding result in assay [4] is listed as “no binding (tested: analyte up to 75 nM)”.

B4: anti-MET Fab variant CDR L3 P95A (Fab, V domains shown)
VH: B1 VH
VL: B1 VL with P101A
notes: as for B2
In assay [3], B4 came in with a dissociation constant (Kd) of less than 0.06 nM, an off-rate (koff) of less than 1e-05 s⁻¹ and an on-rate constant (kon) of 153000 M⁻¹ s⁻¹.

B5: anti-MET Fab variant CDR L3 Y91A (Fab, V domains shown)
VH: B1 VH
VL: B1 VL with Y97A
notes: Fab; variable domains only
Turning to B5, in assay [3], the dissociation constant Kd was 0.8 nM, the koff turned out to be 6e-05 s⁻¹ and the on-rate constant (kon) worked out at 70000 M⁻¹ s⁻¹.

B6: anti-MET Fab variant CDR L3 Y92A (Fab, V domains shown)
VH: B1 VH
VL: B1 VL with Y98A
notes: as for B2
In assay [3], B6 came in with a Kd of 1.1 nM, a koff of 0.00019 s⁻¹ and a kon of 172000 M⁻¹ s⁻¹.

B7: anti-MET Fab variant CDR L3 W96A (Fab, V domains shown)
VH: B1 VH
VL: B1 VL with W102A
notes: as for B2
In assay [3], B7 yielded a dissociation constant (Kd) of 2.1 nM, an off-rate constant (koff) of 0.00017 s⁻¹ and a kon of 84000 M⁻¹ s⁻¹.

B8: anti-MET Fab variant CDR L3 Y94A (Fab, V domains shown)
VH: B1 VH
VL: B1 VL with Y100A
notes: as for B2
In assay [3], B8 registered a Kd of 5.7 nM, an off-rate (koff) of 0.00065 s⁻¹ and an on-rate (kon) of 115000 M⁻¹ s⁻¹.

B9: Parental anti-IL-13 Fab (lebrikizumab) (Fab, V domains shown)
VH: EVTLRESGPALVKPTQTLTLTCTVSGFSLSAYSVNWIRQPPGKALEWLAMIWGDGKIVYNSALKSRLTISKDTSKNQVVLTMTNMDPVDTATYYCAGDGYYPYAMDNWGQGSLVTVSS
VL: DIVLTQSPDSLSVSLGERATINCRASKSVDSYGNSFMHWYQQKPGQPPKLLIYLASNLESGVPDRFSGSGSGTDFTLTISSLQAEDVAVYYCQQNNEDPRTFGGGTKVEIK
notes: Tested as Fab
On to B9, for which, in the assay with IL-13 (in-house) [5], the Kd is 0.05 nM, the koff is 5e-05 s⁻¹ and the kon came to 1.17e+06 M⁻¹ s⁻¹.

B10: anti-IL-13 Fab variant CDR L3 D94A:R96A (Fab, V domains shown)
VH: B9 VH
VL: B9 VL with D98A, R100A
notes: Fab; variable domains only; Kabat numbering; also called D94: R96A double substitution
Regarding B10, in the assay with IL-13 (in-house) [6], the “fold loss in binding affinity against the parental anti-IL-13 Fab” value is roughly 10 fold. In the assay with IL-13 (in-house) [5], this molecule returned a Kd of 0.7 nM, a dissociation rate constant (koff) of 0.00037 s⁻¹ and a kon of 528000 M⁻¹ s⁻¹.

B11: anti-IL-13 Fab variant CDR L3 N92A (Fab, V domains shown)
VH: B9 VH
VL: B9 VL with N96A
notes: as for B2
In the assay with IL-13 (in-house) [5], B11 yielded a Kd of 0.03 nM, a koff of 3e-05 s⁻¹ and an on-rate (kon) of 1.03e+06 M⁻¹ s⁻¹.

B12: anti-IL-13 Fab variant CDR L3 R96A (Fab, V domains shown)
VH: B9 VH
VL: B9 VL with R100A
notes: as for B2
For the molecule B12, in the assay with IL-13 (in-house) [6], the “fold loss in binding affinity against the parental anti-IL-13 Fab” value was roughly 10 fold. In the assay with IL-13 (in-house) [5], this molecule returned a dissociation constant Kd of 0.5 nM, a koff of 0.00044 s⁻¹ and an on-rate constant (kon) of 825000 M⁻¹ s⁻¹.

B13: anti-IL-13 Fab variant CDR L3 D94A (Fab, V domains shown)
VH: B9 VH
VL: B9 VL with D98A
notes: as for B2
Consider B13, for which, in the assay with IL-13 (in-house) [5], the equilibrium dissociation constant (Kd) was found to be 0.02 nM, the dissociation rate constant (koff) came to 3e-05 s⁻¹ and the kon stood at 1.24e+06 M⁻¹ s⁻¹.

B14: anti-IL-13 Fab variant CDR H3 D95A:P99A (Fab, name in Kabat numbering, V domains shown)
VH: B9 VH with D98A, P102A
VL: B9 VL
notes: as for B2
As for B14, the binding result with IL-13 (in-house) [7] is recorded as “no binding (tested: analyte up to 20 mM as printed)”.

B15: anti-IL-13 Fab variant CDR H3 D95A (Fab, name in Kabat numbering, V domains shown)
VH: B9 VH with D98A
VL: B9 VL
notes: as for B2
In the assay with IL-13 (in-house) [5], B15 showed a Kd of 1.3 nM, a koff of 0.00111 s⁻¹ and a kon of 882000 M⁻¹ s⁻¹.

B16: anti-IL-13 Fab variant CDR H3 P99A (Fab, name in Kabat numbering, V domains shown)
VH: B9 VH with P102A
VL: B9 VL
notes: as for B2
In the assay with IL-13 (in-house) [5], B16 yielded a dissociation constant (Kd) of 1.8 nM, a koff of 0.00269 s⁻¹ and a kon of 1.5e+06 M⁻¹ s⁻¹.

These data come from US20220056134A1 (Genentech, published 2022).
